In the supplement of paper PMC10126150:
± gives the standard deviation of the averaged measurements.

Tested on: ATP
Test: switch fluorescence ratio, 500 uM ATP over buffer (Cy3 cluster intensity, sum of 5 cycles each) (fold (ratio)); higher = stronger signal-on switching upon ATP binding; sequences stand for … in TCGTCGGCAGCGTCAGATGTGTATAAGAGACAGTTTTTTTTTTTTTTTTTTTTTTTTT…TC
Conditions: aptamer strand: ATP DNA aptamer (quencher-CACCTGGGGGAGTATTGCGGAGGAAGG + anchor), 100 nM annealed; ATP concentration: 500 uM
Summary of the method: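 Exposure to 500 uM ATP lasted 15 min at 22 °C before imaging, and a selection-buffer image was taken beforehand, for Cy3-labelled switching-strand clusters on a modified Illumina MiSeq flow-cell annealed to 100 nM quencher-labelled ATP aptamer. Five buffer/ATP cycles were run with NaOH stripping and re-annealing between them. The fluorescence ratio per cluster is summed target-cycle over summed buffer-cycle Cy3 intensity, averaged per switch-domain sequence. Clusters outside 100-1000 RFU were excluded.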

Sequence	switch fluorescence ratio
CTGAGCGATG	1.063 ± 0.0078
CTGAGGGGCC	0.951 ± 0.071
CTGAGGGGGA	1.09 ± 0.17
CTGAGGGGGT	0.991 ± 0.066
CTGAGTGCTT	0.991 ± 0.0067
CTGAGTGGC	0.9639 ± 0.0063
CTGAGTTGTT	0.989 ± 0.08
CTGATAAAGG	0.969 ± 0.048
CTGATATAAG	1.03 ± 0.017
CTGATATTGG	0.994 ± 0.015
CTGATGGGCT	0.972 ± 0.029
CTGATGGGG	0.986 ± 0.021
CTGATGTCGC	1.074 ± 0.0034
CTGATGTGTC	0.996 ± 0.055
CTGATTTAGC	1.05 ± 0.043
CTGCACATGG	1.7 ± 0.21
CTGCATCCGG	1.314 ± 0.011
CTGCATGACG	1.01 ± 0.047
CTGCCCGCCC	1.3 ± 0.12
CTGCGAGGGG	1 ± 0.016
CTGCGGGATT	1.02 ± 0.026
CTGCGGGGAG	1.03 ± 0.037
CTGCTAGTTT	0.983 ± 0.016
CTGCTGAGCA	1.03 ± 0.029
CTGCTTCCCG	1.15 ± 0.041

Sequence	switch fluorescence ratio
CTGGAAATTG	1.03 ± 0.036
CTGGAACGTC	0.989 ± 0.026
CTGGAAGGGT	1 ± 0.03
CTGGAATGTT	1.012 ± 0.01
CTGGACGGTG	1.032 ± 0.0042
CTGGACTGGT	0.989 ± 0.012
CTGGAGGGGA	1.04 ± 0.034
CTGGATAGCG	0.981 ± 0.044
CTGGCAAGGT	1.09 ± 0.031
CTGGCATTTT	0.9936 ± 0.0054
CTGGCGAGCG	1.03 ± 0.011
CTGGCGGTCC	1.028 ± 0.0066
CTGGGAATGG	1.12 ± 0.11
CTGGGAATTG	1.05 ± 0.043
CTGGGACTGA	1.02 ± 0.03
CTGGGAGGGG	1.01 ± 0.029
CTGGGAGGTG	1.03 ± 0.055
CTGGGAGTAC	1.04 ± 0.051
CTGGGGACGT	0.9821 ± 0.0081
CTGGGGAGAG	1.01 ± 0.026
CTGGGGAGCT	1.03 ± 0.05
CTGGGGAGTG	0.977 ± 0.029
CTGGGGATGG	0.995 ± 0.02
CTGGGGGACG	1.02 ± 0.016
CTGGGGGCGA	1.04 ± 0.012

Sequence	switch fluorescence ratio
CTGGGGGCGG	0.986 ± 0.018
CTGGGGGGAT	0.987 ± 0.021
CTGGGGGGCA	0.997 ± 0.017
CTGGGGGGCC	1.01 ± 0.038
CTGGGGGGCG	0.984 ± 0.066
CTGGGGGGTT	0.994 ± 0.019
CTGGGGGTCG	1 ± 0.025
CTGGGGTAAG	1.01 ± 0.042
CTGGGGTACT	1.08 ± 0.056
CTGGGGTGGG	1.01 ± 0.042
CTGGGGTTAC	1.77 ± 1
CTGGGGTTTC	0.997 ± 0.026
CTGGGTAACG	0.996 ± 0.034
CTGGGTAATT	1.04 ± 0.059
CTGGGTTAGT	1.03 ± 0.035
CTGGGTTCTC	0.989 ± 0.016
CTGGTAAATC	1.02 ± 0.026
CTGGTAATGG	1.04 ± 0.033
CTGGTAGGGG	0.983 ± 0.015
CTGGTCAGGG	0.988 ± 0.013
CTGGTCGGGC	0.982 ± 0.012
CTGGTCGGGG	1.017 ± 0.0096
CTGGTGACTG	0.986 ± 0.096
CTGGTGCATT	1.21 ± 0.11
CTGGTTATAG	0.989 ± 0.028

Sequence	switch fluorescence ratio
CTGGTTATCG	0.9998 ± 0.0032
CTGGTTCGGT	1.01 ± 0.037
CTGGTTCTTC	0.95 ± 0.022
CTGTAAGGTC	1.01 ± 0.019
CTGTAATCGT	0.9595 ± 0.0086
CTGTAATTAT	1 ± 0.011
CTGTAGTCGG	1.02 ± 0.03
CTGTATATCT	1.02 ± 0.022
CTGTATGAGT	0.9879 ± 0.0037
CTGTATGCGG	1.02 ± 0.089
CTGTCAAGAT	1.02 ± 0.024
CTGTCAGATG	1 ± 0.025
CTGTCCGGTA	1.056 ± 0.008
CTGTCGTAAA	1.07 ± 0.019
CTGTCGTTTC	0.975 ± 0.044
CTGTCTGGTG	1.025 ± 0.0087
CTGTCTTATG	1 ± 0.068
CTGTGCAGTC	1.26 ± 0.075
CTGTGGACCG	0.974 ± 0.017
CTGTGGCAGC	1.033 ± 0.0099
CTGTGGCTTT	1.016 ± 0.0096
CTGTGGGGCG	1.01 ± 0.045
CTGTGGGGGC	1.01 ± 0.016
CTGTGGTTTT	0.98 ± 0.034
CTGTGTGGAG	0.991 ± 0.013
